Measurements from the supplement of paper PMC10567573.

B1: EFHC1 (parent)
chain: NIYYYLEDDSMSVIEPVVENSGIL

Variants of: B1
Assay: protein stability index of a GFP-peptide fusion (GPS, HEK-293T) (PSI 1-6); higher = more stable
Conditions: c terminus: a fixed tail appended
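Also: lentivirally expressed fusions sorted by FACS into six bins by GFP to DsRed ratio, PSI derived from sequencing read proportions per bin multiplied by bin number.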

Variant	protein stability index
NIYYYLEDDSMSVIAPVVENSGIL [E15A]	2.22
NIYYYLEDDSMSVIYPVVENSGIL [E15Y]	1.02
NIYYYLEDDSMSVIFPVVENSGIL [E15F]	2.48
NIYYYLEDDSMSVIKPVVENSGIL [E15K]	2.34
NIYYYLEDDSMSVISPVVENSGIL [E15S]	1.7
NIYYYLEDDSMSVIHPVVENSGIL [E15H]	1.75
NIYYYLEDDSMSVILPVVENSGIL [E15L]	2.31
NIYYYLEDDSMSVINPVVENSGIL [E15N]	2.79
NIYYYLEDDSMSVIMPVVENSGIL [E15M]	2.85
NIYYYLEDDSMSVIIPVVENSGIL [E15I]	3.11
NIYYYLEDDSMSVICPVVENSGIL [E15C]	3.27
NIYYYLEDDSMSVIWPVVENSGIL [E15W]	2.39
NIYYYLEDDSMSVIDPVVENSGIL [E15D]	1.96
NIYYYLEDDSMSVIPPVVENSGIL [E15P]	2.38
NIYYYLEDDSMSVITPVVENSGIL [E15T]	1.42
NIYYYLEDDSMSVIRPVVENSGIL [E15R]	1.32
NIYYYLEDDSMSVIQPVVENSGIL [E15Q]	1.61
NIYYYLEDDSMSVIGPVVENSGIL [E15G]	1.6
NIYYYLEDDSMSLIEPVVENSGIL [V13L]	2.52
NIYYYLEDDSMSMIEPVVENSGIL [V13M]	2.23
NIYYYLEDDSMSQIEPVVENSGIL [V13Q]	2.35
NIYYYLEDDSMSNIEPVVENSGIL [V13N]	2.82
NIYYYLEDDSMSPIEPVVENSGIL [V13P]	2.5
NIYYYLEDDSMSHIEPVVENSGIL [V13H]	2.24

Variant	protein stability index
NIYYYLEDDSMSWIEPVVENSGIL [V13W]	2.11
NIYYYLEDDSMSIIEPVVENSGIL [V13I]	2.15
NIYYYLEDDSMSAIEPVVENSGIL [V13A]	1.72
NIYYYLEDDSMSYIEPVVENSGIL [V13Y]	1.31
NIYYYLEDDSMSFIEPVVENSGIL [V13F]	2.16
NIYYYLEDDSMSTIEPVVENSGIL [V13T]	2.21
NIYYYLEDDSMSEIEPVVENSGIL [V13E]	3.1
NIYYYLEDDSMSCIEPVVENSGIL [V13C]	1.85
NIYYYLEDDSMSGIEPVVENSGIL [V13G]	2.42
NIYYYLEDDSMSDIEPVVENSGIL [V13D]	2.86
NIYYYLEDDSMSKIEPVVENSGIL [V13K]	2.08
NIYYYLEDDSMSSIEPVVENSGIL [V13S]	2.17
NIYYYLEDDSMSRIEPVVENSGIL [V13R]	1.81
NIYYYLEDDSGSVIEPVVENSGIL [M11G]	2.05
NIYYYLEDDSHSVIEPVVENSGIL [M11H]	2.56
NIYYYLEDDSTSVIEPVVENSGIL [M11T]	2.38
NIYYYLEDDSKSVIEPVVENSGIL [M11K]	3.24
NIYYYLEDDSCSVIEPVVENSGIL [M11C]	2.19
NIYYYLEDDSASVIEPVVENSGIL [M11A]	2.75
NIYYYLEDDSFSVIEPVVENSGIL [M11F]	1.7
NIYYYLEDDSESVIEPVVENSGIL [M11E]	2.68
NIYYYLEDDSRSVIEPVVENSGIL [M11R]	2.32
NIYYYLEDDSWSVIEPVVENSGIL [M11W]	1.76
NIYYYLEDDSYSVIEPVVENSGIL [M11Y]	2.17

Variant	protein stability index
NIYYYLEDDSPSVIEPVVENSGIL [M11P]	3.39
NIYYYLEDDSISVIEPVVENSGIL [M11I]	2.51
NIYYYLEDDSVSVIEPVVENSGIL [M11V]	2.2
NIYYYLEDDSNSVIEPVVENSGIL [M11N]	3.06
NIYYYLEDDSDSVIEPVVENSGIL [M11D]	3.39
NIYYYLEDDSLSVIEPVVENSGIL [M11L]	2.07
NIYYYLEDDSQSVIEPVVENSGIL [M11Q]	2.55
NIYYYLEDDSSSVIEPVVENSGIL [M11S]	2.46
NIYYYLEDDSMSVIEPDVENSGIL [V17D]	2.6
NIYYYLEDDSMSVIEPQVENSGIL [V17Q]	2.41
NIYYYLEDDSMSVIEPWVENSGIL [V17W]	1.94
NIYYYLEDDSMSVIEPSVENSGIL [V17S]	1.88
NIYYYLEDDSMSVIEPGVENSGIL [V17G]	1.95
NIYYYLEDDSMSVIEPPVENSGIL [V17P]	2.85
NIYYYLEDDSMSVIEPFVENSGIL [V17F]	2.88
NIYYYLEDDSMSVIEPCVENSGIL [V17C]	1.85
NIYYYLEDDSMSVIEPLVENSGIL [V17L]	1.74
NIYYYLEDDSMSVIEPMVENSGIL [V17M]	2.07
NIYYYLEDDSMSVIEPIVENSGIL [V17I]	1.62
NIYYYLEDDSMSVIEPKVENSGIL [V17K]	2.31
NIYYYLEDDSMSVIEPNVENSGIL [V17N]	1.76
NIYYYLEDDSMSVIEPEVENSGIL [V17E]	3.08
NIYYYLEDDSMSVIEPYVENSGIL [V17Y]	1.72
NIYYYLEDDSMSVIEPTVENSGIL [V17T]	2.32

Variant	protein stability index
NIYYYLEDDSMSVIEPHVENSGIL [V17H]	2.15
NIYYYLEDDSMSVIEPAVENSGIL [V17A]	2.1
NIYYYLEDDSMSVIEPRVENSGIL [V17R]	1.98
NIYYYLEDDFMSVIEPVVENSGIL [S10F]	2.3
NIYYYLEDDDMSVIEPVVENSGIL [S10D]	2.36
NIYYYLEDDKMSVIEPVVENSGIL [S10K]	2.18
NIYYYLEDDLMSVIEPVVENSGIL [S10L]	1.14
NIYYYLEDDCMSVIEPVVENSGIL [S10C]	1.71
NIYYYLEDDHMSVIEPVVENSGIL [S10H]	2.09
NIYYYLEDDYMSVIEPVVENSGIL [S10Y]	1.9
NIYYYLEDDEMSVIEPVVENSGIL [S10E]	2.57
NIYYYLEDDVMSVIEPVVENSGIL [S10V]	1.68
NIYYYLEDDTMSVIEPVVENSGIL [S10T]	1.93
NIYYYLEDDPMSVIEPVVENSGIL [S10P]	2.03
NIYYYLEDDQMSVIEPVVENSGIL [S10Q]	2.05
NIYYYLEDDWMSVIEPVVENSGIL [S10W]	2.02
NIYYYLEDDIMSVIEPVVENSGIL [S10I]	2.1
NIYYYLEDDRMSVIEPVVENSGIL [S10R]	3.15
NIYYYLEDDMMSVIEPVVENSGIL [S10M]	2.13
NIYYYLEDDAMSVIEPVVENSGIL [S10A]	2.02
NIYYYLEDDNMSVIEPVVENSGIL [S10N]	3.24
NIYYYLEDDGMSVIEPVVENSGIL [S10G]	2.08
NIYYYLEDDSMSVIEVVVENSGIL [P16V]	2.86
NIYYYLEDDSMSVIEYVVENSGIL [P16Y]	1.42

Variant	protein stability index
NIYYYLEDDSMSVIECVVENSGIL [P16C]	2.54
NIYYYLEDDSMSVIEMVVENSGIL [P16M]	2.57
NIYYYLEDDSMSVIEAVVENSGIL [P16A]	2.38
NIYYYLEDDSMSVIERVVENSGIL [P16R]	2.11
NIYYYLEDDSMSVIEWVVENSGIL [P16W]	2.61
NIYYYLEDDSMSVIESVVENSGIL [P16S]	1.83
NIYYYLEDDSMSVIEGVVENSGIL [P16G]	1.92
NIYYYLEDDSMSVIETVVENSGIL [P16T]	2.94
NIYYYLEDDSMSVIEQVVENSGIL [P16Q]	2.17
NIYYYLEDDSMSVIEIVVENSGIL [P16I]	2.75
NIYYYLEDDSMSVIENVVENSGIL [P16N]	1.65
NIYYYLEDDSMSVIEFVVENSGIL [P16F]	2.73
NIYYYLEDDSMSVIEHVVENSGIL [P16H]	2.45
NIYYYLEDDSMSVIEEVVENSGIL [P16E]	2.37
NIYYYLEDDSMSVIEKVVENSGIL [P16K]	2.58
NIYYYLEDDSMSVIEDVVENSGIL [P16D]	2.2
NIYYYLEDSSMSVIEPVVENSGIL [D9S]	1.68
NIYYYLEDPSMSVIEPVVENSGIL [D9P]	2.02
NIYYYLEDASMSVIEPVVENSGIL [D9A]	2.09
NIYYYLEDWSMSVIEPVVENSGIL [D9W]	1.54
NIYYYLEDCSMSVIEPVVENSGIL [D9C]	1.76
NIYYYLEDISMSVIEPVVENSGIL [D9I]	1.56
NIYYYLEDTSMSVIEPVVENSGIL [D9T]	1.37
NIYYYLEDFSMSVIEPVVENSGIL [D9F]	2.08

Variant	protein stability index
NIYYYLEDRSMSVIEPVVENSGIL [D9R]	2.09
NIYYYLEDYSMSVIEPVVENSGIL [D9Y]	4.3
NIYYYLEDLSMSVIEPVVENSGIL [D9L]	1.68
NIYYYLEDQSMSVIEPVVENSGIL [D9Q]	2.88
NIYYYLEDKSMSVIEPVVENSGIL [D9K]	1.83
NIYYYLEDHSMSVIEPVVENSGIL [D9H]	2.13
NIYYYLEDGSMSVIEPVVENSGIL [D9G]	2.12
NIYYYLEDESMSVIEPVVENSGIL [D9E]	2.11
NIYYYLEDNSMSVIEPVVENSGIL [D9N]	1.69
NIYYYLTDDSMSVIEPVVENSGIL [E7T]	2.38
NIYYYLSDDSMSVIEPVVENSGIL [E7S]	1.46
NIYYYLYDDSMSVIEPVVENSGIL [E7Y]	2.31
NIYYYLWDDSMSVIEPVVENSGIL [E7W]	1.41
NIYYYLRDDSMSVIEPVVENSGIL [E7R]	2.52
NIYYYLEDDSMSVIEPVAENSGIL [V18A]	2.19
NIYYYLEDDSMFVIEPVVENSGIL [S12F]	2.77
NIYYYLEDDSMNVIEPVVENSGIL [S12N]	2.08
NIYYYLEDDSMHVIEPVVENSGIL [S12H]	2.53
NIYYYLEDDSMKVIEPVVENSGIL [S12K]	1.85
NIYYYLEDDSMDVIEPVVENSGIL [S12D]	3.05
NIYYYLEDDSMQVIEPVVENSGIL [S12Q]	1.92
NIYYYLEDDSMPVIEPVVENSGIL [S12P]	2.15
NIYYYLEDDSMRVIEPVVENSGIL [S12R]	1.73
NIYYYLEDDSMMVIEPVVENSGIL [S12M]	1.8

Variant	protein stability index
NIYYYLEDDSMTVIEPVVENSGIL [S12T]	1.58
NIYYYLEDDSMAVIEPVVENSGIL [S12A]	1.98
NIYYYLEDDSMYVIEPVVENSGIL [S12Y]	1.2
NIYYYLEDDSMWVIEPVVENSGIL [S12W]	2.16
NIYYYLEDDSMEVIEPVVENSGIL [S12E]	2.64
NIYYYLEDDSMCVIEPVVENSGIL [S12C]	1.61
NIYYYLEDDSMVVIEPVVENSGIL [S12V]	1.86
NIYYYLEDDSMGVIEPVVENSGIL [S12G]	2.37
NIYYYLEADSMSVIEPVVENSGIL [D8A]	1.94
NIYYYLECDSMSVIEPVVENSGIL [D8C]	2.56
NIYYYLENDSMSVIEPVVENSGIL [D8N]	2.01
NIYYYLEEDSMSVIEPVVENSGIL [D8E]	1.94
NIYYYLEYDSMSVIEPVVENSGIL [D8Y]	2.03
NIYYYLEVDSMSVIEPVVENSGIL [D8V]	3.11
NIYYYLEKDSMSVIEPVVENSGIL [D8K]	1.6
NIYYYLEPDSMSVIEPVVENSGIL [D8P]	2.23
NIYYYLEWDSMSVIEPVVENSGIL [D8W]	4.45
NIYYYLEGDSMSVIEPVVENSGIL [D8G]	2.47
NIYYYLEFDSMSVIEPVVENSGIL [D8F]	2.17
NIYYYLERDSMSVIEPVVENSGIL [D8R]	2.35
NIYYYLEHDSMSVIEPVVENSGIL [D8H]	1.89
NIYYYLEMDSMSVIEPVVENSGIL [D8M]	2.71
NIYYYLEQDSMSVIEPVVENSGIL [D8Q]	1.91
NIYYYLESDSMSVIEPVVENSGIL [D8S]	2.6

Variant	protein stability index
NIYYYLETDSMSVIEPVVENSGIL [D8T]	1.83
NIYYYLEDDSMSVNEPVVENSGIL [I14N]	2.62
NIYYYLEDDSMSVGEPVVENSGIL [I14G]	2.51
NIYYYLEDDSMSVLEPVVENSGIL [I14L]	1.95
NIYYYLEDDSMSVDEPVVENSGIL [I14D]	3.11
NIYYYLEDDSMSVSEPVVENSGIL [I14S]	2.43
NIYYYLEDDSMSVMEPVVENSGIL [I14M]	2.09
NIYYYLEDDSMSVCEPVVENSGIL [I14C]	2.28
NIYYYLEDDSMSVHEPVVENSGIL [I14H]	2.45
NIYYYLEDDSMSVAEPVVENSGIL [I14A]	2.42
NIYYYLEDDSMSVYEPVVENSGIL [I14Y]	1.93
NIYYYLEDDSMSVFEPVVENSGIL [I14F]	1.98
NIYYYLEDDSMSVREPVVENSGIL [I14R]	2.78
NIYYYLEDDSMSVKEPVVENSGIL [I14K]	3.07
NIYYYLEDDSMSVPEPVVENSGIL [I14P]	3.08
NIYYYLEDDSMSVVEPVVENSGIL [I14V]	2.31
NIYYYLEDDSMSVTEPVVENSGIL [I14T]	2.1
NIYYYLEDDSMSVEEPVVENSGIL [I14E]	3.1
NIYYYLEDDSMSVWEPVVENSGIL [I14W]	1.86
NIYYYLEDDSMSVQEPVVENSGIL [I14Q]	1.85
